Source: patent publication US10052364B2, “Osteocalcin as a treatment for cognitive disorders” (THE TRUSTEES OF COLUMBIA UNIVERSITY IN THE CITY OF NEW YORK, priority 2013, dated 2018)

System: Osteocalcin-/- mice born from Osteocalcin-/- mothers
Assay: Osteocalcin injections in pregnant Osteocalcin-/- mothers (E0.5-E18.5): offspring behavior and brain histology
Assay type: in vivo, mouse
Protocol: FIG. 7. Maternal osteocalcin determines spatial learning and memory in adult offspring. (A-F) DLT (A), EPMT (B), OFT (C), FST (D), TST (E), and MWMT (F) performed in 3-month-old Ocn^−/− mice born from Ocn^−/− mothers injected once a day with vehicle or osteocalcin (240 ng/day) during pregnancy compared to WT mice. (G) Surface of the lateral ventricle over brain area (%) of E18.5 hippocampi coronal sections of WT embryos originating from WT mothers and Ocn^−/− embryos originating from osteocalcin-injected Ocn^−/− mothers. (H) Number of apoptotic cells (stained by TUNEL assay) of E18.5 hippocampi coronal sections of WT embryos originating from WT mothers and Ocn^−/− embryos originating from Ocn^−/− mothers injected with osteocalcin (240 ng/day). (I) Cresyl violet, NeuN immunofluorescence, and dentate gyms area (% versus WT) of WT and Ocn^−/− embryos originating from osteocalcin-injected Ocn^−/− mothers. Scale bars=0.5 mm.
Osteocalcin^−/−, Gprc6a^−/−, Osteocalcin-mCherry, and Osteocalcin floxed mice have been previously described (Ducy et al., 1996, Nature 382:448-452; Oury et al., 2011, Cell 144:796-809). Mouse genotypes were determined by PCR. For all experiments, controls were littermate female WT, Cre-expressing, or flox/flox. All mice were maintained on a pure 129-Sv genetic background except for the inducible deletion Osteocalcin model (mix background: 25% C57/BL6 and 75% 129sv). For inducible gene deletion mice, tamoxifen was prepared in corn oil and injected intraperitoneally (IP) (1 mg/20 g of body weight) over one week. For osteocalcin delivery to pregnant mice, IP injections (240 ng/day) were performed as soon as a plug was present daily until delivery (E0.5-E18.5). For osteocalcin or leptin infusion in adult Osteocalcin^−/− or ob/ob mice, pumps (Alzet micro-osmotic pump, Model 1002) delivering osteocalcin (300 ng/hr), leptin (50 ng/hr), or vehicle were surgically installed subcutaneously in the backs of 3-month old mice. For the postnatal rescue of cognitive functions in Osteocalcin^−/− mice, osteocalcin (10 ng/hour) or vehicle were delivered intrasubventricularly (icy) as previously described (Ducy et al., 2000, Cell 100:197-207). Leptin and osteocalcin content in sera and tissues were determined by ELISA.
Cresyl violet staining to visualize brain morphology was carried out by incubating 20 μm cryosections defatted with 1:1 chloroform:ethanol in cresyl violet acetate (1 g/L) overnight. The stain was differentiated using ethanol and xylene and mounted using DPX mounting medium for histology (Sigma).
To assess apoptosis in WT and Osteocalcin^−/− brains, 20 μm cryostat sections were processed using the APOPTAG® Fluorescein Direct In Situ Apoptosis Detection Kit (Millipore) according to manufacturer's protocol. Images were obtained using Leica DM 4000B, and Image J was used to quantify cell number and intensity of staining.
For western blotting, frozen hippocampi from E18.5 embryos were lysed and homogenized in 250 μl tissue lysis buffer (25 mM Tris HCl 7.5; 100 mM NaF; 10 mM Na4P2O7; 10 mmM EDTA; 1% NP 40). Samples were pooled together in threes by genotype to reduce variability. Proteins were transferred to nitrocellulose membranes and blocked with TBST-5% milk prior to overnight incubation with primary antibody in TBST-5% BSA. HRP-coupled secondary antibodies and ECL were used to visualize the signal.
To further evaluate the importance of maternal osteocalcin for the acquisition of spatial learning and memory in adult offspring, pregnant Osteocalcin^−/− mothers from E0.5 to E18.5 were treated with injections, once a day, of osteocalcin (240 ng/day). Osteocalcin was never injected in these females or their pups after delivery. […] Likewise, the number of apoptotic cells was reduced and the number of NeuN positive cells was increased compared to Osteocalcin^−/− embryos originating from Osteocalcin^−/− mothers that were not injected (FIG. 7I-J).

[1] = 240 ng/day once a day to pregnant Osteocalcin-/- mothers, E0.5 to E18.5

B1: uncarboxylated osteocalcin: Recombinant osteocalcin bacterially produced, cleaved from the GST subunit; completely undercarboxylated at all three sites (protein, listed as Homo sapiens)
chain: MRALTLLALLALAALCIAGQAGAKPSGAESSKGAAFVSKQEGSEVVKRPRRYLYQWLGAPVPYPDPLEPRREVCELNPDCDELADHIGFQEAYRRFYGPV
modifications: uncarboxylated
notes: Recombinant osteocalcin bacterially produced, cleaved from the GST subunit; completely undercarboxylated at all three sites
For B1, the “anxiety or depression phenotypes of adult offspring” value [1] was “did not have any beneficial effect”, the “deficit in learning and memory of adult offspring” value [1] was “rescued over two third of their deficit” and the “cerebral ventricle enlargement in brains of E18.5 Osteocalcin-/- embryos (cresyl violet)” value (injection of the pregnant Osteocalcin-/- mothers, 240 ng/day) was “rescue of the cerebral ventricle enlargement”. The “thickness defect in the CA3 and CA4 regions of the hippocampus in adult Osteocalcin-/- offspring” value (mothers injected during pregnancy) was “rescue of the thickness defect”, the “number of NeuN positive cells” value (versus embryos from Osteocalcin-/- mothers not injected) was “increased” and the “number of apoptotic cells in E18.5 embryo hippocampus” value (versus embryos from Osteocalcin-/- mothers not injected, listed as Uncarboxylated osteocalcin) was “prevent this neuronal apoptosis”. For the same molecule, the “number of apoptotic cells in E18.5 embryo hippocampus” value (versus embryos from Osteocalcin-/- mothers not injected, listed as osteocalcin) was “reduced” and the “Caspase-3 cleaved protein level in hippocampus of E18.5 embryos (Western blot)” value (versus embryos from mothers not injected) was “decrease”.
